Assay results: patent US20050256058A1 (GEORGIA TECH RESEARCH, published 2005)
Numbered stars: 1 amine (or outer) side, 2 acyl side, 3 side chain; on linkers, the order of the positions; unused ones are H or OH. Square brackets hold non-standard residues; d marks the D form. * marks the point of attachment. CH═CH‑CON(CH2Ph)2 = O=C(/C=C/*)N(Cc1ccccc1)Cc1ccccc1; AAsp = aza-Asp, O=C(N(CC(=O)[*:3])N[*:1])[*:2]; Cbz = O=C(OCc1ccccc1)*

T1: Caspase-3 (UniProt P42574 29-277)
T1 sequence (looked up): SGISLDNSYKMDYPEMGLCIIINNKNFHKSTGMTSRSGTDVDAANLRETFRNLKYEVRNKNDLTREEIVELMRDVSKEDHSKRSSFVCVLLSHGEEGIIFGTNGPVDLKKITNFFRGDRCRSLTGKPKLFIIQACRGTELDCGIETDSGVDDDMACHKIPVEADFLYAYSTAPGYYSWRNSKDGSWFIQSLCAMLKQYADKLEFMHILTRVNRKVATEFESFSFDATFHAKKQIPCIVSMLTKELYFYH

T2: Caspase-7 (UniProt P55210 24-303)
T2 sequence (looked up): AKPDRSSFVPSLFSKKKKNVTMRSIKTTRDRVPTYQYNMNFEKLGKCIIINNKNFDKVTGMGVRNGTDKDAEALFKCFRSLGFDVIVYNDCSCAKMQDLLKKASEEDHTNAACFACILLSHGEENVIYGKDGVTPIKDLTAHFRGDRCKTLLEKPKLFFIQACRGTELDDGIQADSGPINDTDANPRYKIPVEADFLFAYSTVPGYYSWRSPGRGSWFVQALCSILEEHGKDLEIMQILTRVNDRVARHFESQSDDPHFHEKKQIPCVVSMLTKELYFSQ

T3: Caspase-6 (UniProt P55212 24-293, limits assumed)
T3 sequence (looked up): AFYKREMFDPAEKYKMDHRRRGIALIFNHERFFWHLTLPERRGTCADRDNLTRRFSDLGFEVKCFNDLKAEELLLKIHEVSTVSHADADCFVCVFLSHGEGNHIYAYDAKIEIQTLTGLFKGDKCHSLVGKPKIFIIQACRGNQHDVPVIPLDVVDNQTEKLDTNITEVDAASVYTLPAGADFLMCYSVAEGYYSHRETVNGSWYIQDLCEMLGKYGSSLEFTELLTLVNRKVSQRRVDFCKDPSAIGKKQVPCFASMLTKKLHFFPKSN

T4: Caspase-2 (UniProt P42575 170-452, limits assumed)
T4 sequence (looked up): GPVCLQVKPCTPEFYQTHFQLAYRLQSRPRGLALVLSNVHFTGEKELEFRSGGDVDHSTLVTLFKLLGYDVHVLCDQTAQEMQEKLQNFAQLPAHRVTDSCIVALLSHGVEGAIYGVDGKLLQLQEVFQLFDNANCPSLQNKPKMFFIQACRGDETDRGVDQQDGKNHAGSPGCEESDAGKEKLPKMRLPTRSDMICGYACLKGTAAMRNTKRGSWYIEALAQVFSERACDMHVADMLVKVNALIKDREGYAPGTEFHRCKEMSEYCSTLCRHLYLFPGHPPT

T5: Caspase-10 (UniProt Q92851 220-521, limits assumed)
T5 sequence (looked up): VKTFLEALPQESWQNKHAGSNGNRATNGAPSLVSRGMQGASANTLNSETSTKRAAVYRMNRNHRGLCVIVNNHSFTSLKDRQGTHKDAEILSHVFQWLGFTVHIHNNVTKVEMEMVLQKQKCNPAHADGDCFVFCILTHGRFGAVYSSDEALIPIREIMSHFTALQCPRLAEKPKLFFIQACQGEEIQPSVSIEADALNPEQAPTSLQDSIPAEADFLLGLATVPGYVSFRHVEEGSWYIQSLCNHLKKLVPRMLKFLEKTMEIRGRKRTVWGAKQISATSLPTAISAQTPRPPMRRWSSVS

T6: Caspase-9 (UniProt P55211 1-416, limits assumed)
T6 sequence (looked up): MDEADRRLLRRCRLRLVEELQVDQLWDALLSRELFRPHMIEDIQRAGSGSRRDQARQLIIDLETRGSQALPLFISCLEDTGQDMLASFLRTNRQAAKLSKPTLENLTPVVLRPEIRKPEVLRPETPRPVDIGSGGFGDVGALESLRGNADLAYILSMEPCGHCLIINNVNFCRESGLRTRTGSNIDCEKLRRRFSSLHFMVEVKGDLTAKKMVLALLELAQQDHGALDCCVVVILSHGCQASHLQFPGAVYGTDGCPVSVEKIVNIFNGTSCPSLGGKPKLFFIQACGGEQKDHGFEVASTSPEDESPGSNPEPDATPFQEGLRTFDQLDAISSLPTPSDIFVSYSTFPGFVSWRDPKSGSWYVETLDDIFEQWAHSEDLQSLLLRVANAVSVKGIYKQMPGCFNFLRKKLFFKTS

B1: Cbz-Asp-Glu-Val-AAsp-CH═CH-CON(CH2Ph)2 (peptide)
peptide: Cbz-DEV[AAsp]-{CH═CH‑CON(CH2Ph)2}
SMILES: CC(C)[C@H](NC(=O)[C@H](CCC(=O)O)NC(=O)[C@H](CC(=O)O)NC(=O)OCc1ccccc1)C(=O)NN(CC(=O)O)C(=O)/C=C/C(=O)N(Cc1ccccc1)Cc1ccccc1
B2: Cbz-Leu-Glu-Thr-AAsp-CH═CH-CON(CH2Ph)2 (peptide)
peptide: Cbz-LET[AAsp]-{CH═CH‑CON(CH2Ph)2}
SMILES: CC(C)C[C@H](NC(=O)OCc1ccccc1)C(=O)N[C@@H](CCC(=O)O)C(=O)N[C@H](C(=O)NN(CC(=O)O)C(=O)/C=C/C(=O)N(Cc1ccccc1)Cc1ccccc1)[C@@H](C)O

biological target: T1, Caspase-3; assay: cell-based or functional assay

Row | Binder | fold more potent inhibition than of caspase-6 | fold more potent inhibition than of caspase-8
1 | B1 | 588 fold | 348 fold

biological target: T2, Caspase-7; assay: cell-based or functional assay

Row | Binder | k2
2 | B1 | 359000 M⁻¹ s⁻¹
3 | B2 | 760 M⁻¹ s⁻¹
4 | Cbz-LET[AAsp]-{CH═CH‑CO‑tetrahydroquinoline} [Cbz-Leu-Glu-Thr-AAsp-CH═CH-CON-tetrahydroquinoline] | 540 M⁻¹ s⁻¹
5 | Cbz-LET[AAsp]-{CH═CH‑CON(CH3)CH2‑1‑Napth} [Cbz-Leu-Glu-Thr-AAsp-CH═CH-CON(CH3)CH2-1-Napth] | 1100 M⁻¹ s⁻¹
6 | Cbz-DEV[AAsp]-{CH═CH‑CONHCH2CH2Ph} [Cbz-Asp-Glu-Val-AAsp-CH═CH-CONHCH2CH2Ph] | 267000 M⁻¹ s⁻¹

biological target: T3, Caspase-6; assay: cell-based or functional assay

Row | Binder | k2
7 | B1 | 5100 M⁻¹ s⁻¹
8 | B2 | 14100 M⁻¹ s⁻¹
9 | Cbz-LET[AAsp]-{CH═CH‑CO‑tetrahydroquinoline} [Cbz-Leu-Glu-Thr-AAsp-CH═CH-CON-tetrahydroquinoline] | 13000 M⁻¹ s⁻¹
10 | Cbz-LET[AAsp]-{CH═CH‑CON(CH3)CH2‑1‑Napth} [Cbz-Leu-Glu-Thr-AAsp-CH═CH-CON(CH3)CH2-1-Napth] | 21700 M⁻¹ s⁻¹
11 | Cbz-DEV[AAsp]-{CH═CH‑CONHCH2CH2Ph} [Cbz-Asp-Glu-Val-AAsp-CH═CH-CONHCH2CH2Ph] | 3470 M⁻¹ s⁻¹

biological target: T1, Caspase-3; assay: cell-based or functional assay; remark: another data set of the same source

Row | Binder | k2
12 | B1 | 3e+06 M⁻¹ s⁻¹
13 | B2 | 8630 M⁻¹ s⁻¹
14 | Cbz-LET[AAsp]-{CH═CH‑CO‑tetrahydroquinoline} [Cbz-Leu-Glu-Thr-AAsp-CH═CH-CON-tetrahydroquinoline] | 12100 M⁻¹ s⁻¹
15 | Cbz-LET[AAsp]-{CH═CH‑CON(CH3)CH2‑1‑Napth} [Cbz-Leu-Glu-Thr-AAsp-CH═CH-CON(CH3)CH2-1-Napth] | 11200 M⁻¹ s⁻¹
16 | Cbz-DEV[AAsp]-{CH═CH‑CONHCH2CH2Ph} [Cbz-Asp-Glu-Val-AAsp-CH═CH-CONHCH2CH2Ph] | 1.95e+06 M⁻¹ s⁻¹

biological target: T4, Caspase-2; assay: cell-based or functional assay

Row | Binder | k2
17 | B1 | 110 M⁻¹ s⁻¹
18 | B2 | 110 M⁻¹ s⁻¹
19 | Cbz-LET[AAsp]-{CH═CH‑CO‑tetrahydroquinoline} [Cbz-Leu-Glu-Thr-AAsp-CH═CH-CON-tetrahydroquinoline] | 92 M⁻¹ s⁻¹
20 | Cbz-LET[AAsp]-{CH═CH‑CON(CH3)CH2‑1‑Napth} [Cbz-Leu-Glu-Thr-AAsp-CH═CH-CON(CH3)CH2-1-Napth] | 290 M⁻¹ s⁻¹
21 | Cbz-DEV[AAsp]-{CH═CH‑CONHCH2CH2Ph} [Cbz-Asp-Glu-Val-AAsp-CH═CH-CONHCH2CH2Ph] | 120 M⁻¹ s⁻¹

biological target: T5, Caspase-10; assay: cell-based or functional assay

Row | Binder | k2
22 | B1 | 6300 M⁻¹ s⁻¹
23 | B2 | 8080 M⁻¹ s⁻¹
24 | Cbz-LET[AAsp]-{CH═CH‑CO‑tetrahydroquinoline} [Cbz-Leu-Glu-Thr-AAsp-CH═CH-CON-tetrahydroquinoline] | 9000 M⁻¹ s⁻¹
25 | Cbz-LET[AAsp]-{CH═CH‑CON(CH3)CH2‑1‑Napth} [Cbz-Leu-Glu-Thr-AAsp-CH═CH-CON(CH3)CH2-1-Napth] | 13600 M⁻¹ s⁻¹
26 | Cbz-DEV[AAsp]-{CH═CH‑CONHCH2CH2Ph} [Cbz-Asp-Glu-Val-AAsp-CH═CH-CONHCH2CH2Ph] | 31400 M⁻¹ s⁻¹

biological target: Caspase-8 (UniProt Q14790 217-479); assay: cell-based or functional assay
Sequence (Q14790 217-479 limits assumed): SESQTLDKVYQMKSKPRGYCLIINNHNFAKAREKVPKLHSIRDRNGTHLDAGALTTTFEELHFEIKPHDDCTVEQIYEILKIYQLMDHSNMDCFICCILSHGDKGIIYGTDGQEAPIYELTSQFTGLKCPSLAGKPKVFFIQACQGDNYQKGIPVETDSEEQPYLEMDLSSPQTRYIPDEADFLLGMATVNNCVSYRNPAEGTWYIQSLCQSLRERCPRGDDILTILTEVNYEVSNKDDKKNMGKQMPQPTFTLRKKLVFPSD

Row | Binder | k2
27 | B1 | 8600 M⁻¹ s⁻¹
28 | B2 | 129000 M⁻¹ s⁻¹
29 | Cbz-LET[AAsp]-{CH═CH‑CO‑tetrahydroquinoline} [Cbz-Leu-Glu-Thr-AAsp-CH═CH-CON-tetrahydroquinoline] | 216000 M⁻¹ s⁻¹
30 | Cbz-LET[AAsp]-{CH═CH‑CON(CH3)CH2‑1‑Napth} [Cbz-Leu-Glu-Thr-AAsp-CH═CH-CON(CH3)CH2-1-Napth] | 179000 M⁻¹ s⁻¹
31 | Cbz-DEV[AAsp]-{CH═CH‑CONHCH2CH2Ph} [Cbz-Asp-Glu-Val-AAsp-CH═CH-CONHCH2CH2Ph] | 129000 M⁻¹ s⁻¹

biological target: T6, Caspase-9; assay: cell-based or functional assay

Row | Binder | k2
32 | B1 | 450 M⁻¹ s⁻¹
33 | B2 | 1100 M⁻¹ s⁻¹
34 | Cbz-LET[AAsp]-{CH═CH‑CO‑tetrahydroquinoline} [Cbz-Leu-Glu-Thr-AAsp-CH═CH-CON-tetrahydroquinoline] | 1660 M⁻¹ s⁻¹
35 | Cbz-LET[AAsp]-{CH═CH‑CON(CH3)CH2‑1‑Napth} [Cbz-Leu-Glu-Thr-AAsp-CH═CH-CON(CH3)CH2-1-Napth] | 5030 M⁻¹ s⁻¹
36 | Cbz-DEV[AAsp]-{CH═CH‑CONHCH2CH2Ph} [Cbz-Asp-Glu-Val-AAsp-CH═CH-CONHCH2CH2Ph] | 655 M⁻¹ s⁻¹
